Measured values reported in patent US20230009539A1 (CLEVELAND CLINIC FOUNDATION, published 2023).

What was measured:
[1] = target: T1, Dcp1 (endogenous, HeLa cells) (human (HeLa cells), UniProt Q9NPI6 1-582); experiment: in situ proximity ligation assay with anti-Act1 and anti-Dcp1, endogenous proteins in HeLa cells, untreated or IL-17
T1 construct: its constructs and phospho-antibody are Dcp1a; also called Dcp1 decapping enzyme; Dcp1a
T1 sequence (looked up): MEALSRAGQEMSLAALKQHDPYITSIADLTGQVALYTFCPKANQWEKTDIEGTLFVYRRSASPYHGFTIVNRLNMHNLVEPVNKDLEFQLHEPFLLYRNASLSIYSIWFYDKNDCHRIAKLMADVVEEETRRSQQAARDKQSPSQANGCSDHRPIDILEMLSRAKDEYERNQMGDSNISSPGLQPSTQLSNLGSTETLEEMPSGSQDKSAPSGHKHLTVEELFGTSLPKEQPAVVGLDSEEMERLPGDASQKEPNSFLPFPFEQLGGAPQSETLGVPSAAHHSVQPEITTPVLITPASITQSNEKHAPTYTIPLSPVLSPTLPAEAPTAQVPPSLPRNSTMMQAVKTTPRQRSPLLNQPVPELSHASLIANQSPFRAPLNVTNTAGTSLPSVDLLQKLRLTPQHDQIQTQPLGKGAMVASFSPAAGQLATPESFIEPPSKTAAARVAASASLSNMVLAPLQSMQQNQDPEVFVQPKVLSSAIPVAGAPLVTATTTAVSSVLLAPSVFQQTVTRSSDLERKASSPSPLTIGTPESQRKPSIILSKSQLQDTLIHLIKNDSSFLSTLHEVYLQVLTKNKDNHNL

[2] = target: T2, TBK1 (endogenous, HeLa cells) (human (HeLa cells), UniProt Q9UHD2 1-729); experiment: anti-Act1 immunoprecipitation from untreated and IL-17-treated HeLa cells (FIG. 4D)
T2 sequence (looked up): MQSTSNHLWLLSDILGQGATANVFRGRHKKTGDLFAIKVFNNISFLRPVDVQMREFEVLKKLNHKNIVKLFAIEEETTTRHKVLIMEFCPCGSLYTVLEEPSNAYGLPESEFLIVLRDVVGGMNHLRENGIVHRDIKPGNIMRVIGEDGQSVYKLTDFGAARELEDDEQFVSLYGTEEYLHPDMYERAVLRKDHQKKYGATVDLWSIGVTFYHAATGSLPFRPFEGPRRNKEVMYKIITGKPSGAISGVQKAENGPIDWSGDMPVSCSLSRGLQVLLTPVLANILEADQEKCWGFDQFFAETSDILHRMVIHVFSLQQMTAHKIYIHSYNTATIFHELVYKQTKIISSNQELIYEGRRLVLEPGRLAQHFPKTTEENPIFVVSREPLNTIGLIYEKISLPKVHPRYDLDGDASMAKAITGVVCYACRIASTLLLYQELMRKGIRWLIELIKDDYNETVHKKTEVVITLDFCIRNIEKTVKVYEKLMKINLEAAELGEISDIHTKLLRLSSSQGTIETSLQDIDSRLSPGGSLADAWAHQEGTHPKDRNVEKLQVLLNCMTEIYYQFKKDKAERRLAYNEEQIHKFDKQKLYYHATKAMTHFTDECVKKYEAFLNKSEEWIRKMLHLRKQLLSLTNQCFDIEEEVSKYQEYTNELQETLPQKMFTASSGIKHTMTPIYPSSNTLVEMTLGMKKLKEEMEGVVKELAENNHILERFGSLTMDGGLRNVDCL
Experimental: (§1) Immunoblot, immunoprecipitation and nuclear fractionation: Cell were harvested and lysed on ice in a lysis buffer containing 0.5% Triton X-100, 20 mM Hepes pH 7.4, 150 mM NaCl, 12.5 mM-glycerophosphate, 1.5 mM MgCl2, 10 mM NaF, 2 mM dithiothreitol, 1 mM sodium orthovanadate, 2 mM EGTA, […], and 1 mM phenylmethylsulfonyl fluoride for 20 minutes, followed by centrifuging at 12,000 rpm for 15 minutes to extract clear lysates. For immunoprecipitation, cell lysates were incubated with 1 μg of antibody and A-sepharose beads at 4 degree overnight. After incubation, the beads were washed four times with lysis buffer and the precipitates were eluted with 2× sample buffer. Elutes and whole cell extracts were resolved on SDS-PAGE followed by immunobloting with antibodies. Nuclear fractionation was performed using NUCLEI EZ PREP kit purchased from Sigma in accordance with the manufacturer's instruction. Nuclear pellets were suspended in 30p1 of nuclear extraction buffer (20 mM HEPES, 400 mM NaCl, 1 mM EDTA, 1 mM EGTA in water, pH 7.9) containing freshly prepared 1 mM DTT and protease inhibitor cocktail. After 1.5 h incubation on ice bath with intermittent vortexing, extracts were centrifuged and supernatant was collected for immunoprecipitation.

[3] = target: T3, IKKi (endogenous, HeLa cells) (human (HeLa cells), UniProt Q14164 1-716); experiment: as above
T3 sequence (looked up): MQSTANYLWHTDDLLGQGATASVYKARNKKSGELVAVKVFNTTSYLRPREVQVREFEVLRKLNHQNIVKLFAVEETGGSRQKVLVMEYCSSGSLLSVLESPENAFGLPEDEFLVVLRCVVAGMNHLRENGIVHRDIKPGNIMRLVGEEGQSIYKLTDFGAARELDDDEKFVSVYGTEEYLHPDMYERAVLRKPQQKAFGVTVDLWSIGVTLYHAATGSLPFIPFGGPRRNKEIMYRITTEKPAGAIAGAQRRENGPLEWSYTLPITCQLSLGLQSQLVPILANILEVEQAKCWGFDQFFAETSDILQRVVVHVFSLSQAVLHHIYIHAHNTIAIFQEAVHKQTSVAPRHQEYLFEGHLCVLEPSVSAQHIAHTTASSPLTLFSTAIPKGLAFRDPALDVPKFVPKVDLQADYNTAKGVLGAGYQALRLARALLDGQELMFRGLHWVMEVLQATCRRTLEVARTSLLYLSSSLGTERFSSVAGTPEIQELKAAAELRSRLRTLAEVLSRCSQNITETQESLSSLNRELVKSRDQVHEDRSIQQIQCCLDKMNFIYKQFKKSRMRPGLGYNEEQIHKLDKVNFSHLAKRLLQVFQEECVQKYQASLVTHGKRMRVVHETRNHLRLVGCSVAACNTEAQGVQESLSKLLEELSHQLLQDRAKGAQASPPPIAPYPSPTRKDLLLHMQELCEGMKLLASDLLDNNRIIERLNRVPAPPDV
Experimental: as §1

[4] = target: T4, FLAG-hDcp1a (human, UniProt Q9NPI6 1-582); experiment: in situ proximity ligation assay (anti-Flag and anti-HA) in HeLa cells co-transfected with Dcp1-FLAG and Act1-HA
T4 construct: also called Dcp1-Flag; FLAG-tagged Dcp1; not shown: FLAG tag
T4 sequence (looked up): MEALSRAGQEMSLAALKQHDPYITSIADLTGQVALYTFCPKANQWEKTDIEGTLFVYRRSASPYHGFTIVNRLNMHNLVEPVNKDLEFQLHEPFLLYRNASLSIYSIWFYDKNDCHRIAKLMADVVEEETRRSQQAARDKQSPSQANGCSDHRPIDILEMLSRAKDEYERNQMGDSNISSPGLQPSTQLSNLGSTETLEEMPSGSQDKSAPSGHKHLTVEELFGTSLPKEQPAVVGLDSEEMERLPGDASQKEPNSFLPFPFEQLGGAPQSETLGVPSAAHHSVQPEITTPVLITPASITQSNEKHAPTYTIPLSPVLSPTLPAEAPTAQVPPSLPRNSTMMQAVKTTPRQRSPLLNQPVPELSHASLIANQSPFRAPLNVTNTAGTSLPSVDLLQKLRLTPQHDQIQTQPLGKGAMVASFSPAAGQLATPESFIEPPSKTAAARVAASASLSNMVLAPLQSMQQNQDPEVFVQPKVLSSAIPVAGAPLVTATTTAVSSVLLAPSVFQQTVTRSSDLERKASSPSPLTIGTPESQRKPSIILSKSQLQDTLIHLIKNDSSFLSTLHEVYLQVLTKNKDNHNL

[5] = target: T5, FLAG-hIRAK1 (human, UniProt P51617 1-712); experiment: in situ proximity ligation assay (anti-Flag and anti-HA) in HeLa cells co-transfected with IRAK1-FLAG and Act1-HA (negative control)
T5 construct: Negative control of the PLA; also called IRAK1-Flag; not shown: FLAG tag
T5 sequence (P51617 whole entry): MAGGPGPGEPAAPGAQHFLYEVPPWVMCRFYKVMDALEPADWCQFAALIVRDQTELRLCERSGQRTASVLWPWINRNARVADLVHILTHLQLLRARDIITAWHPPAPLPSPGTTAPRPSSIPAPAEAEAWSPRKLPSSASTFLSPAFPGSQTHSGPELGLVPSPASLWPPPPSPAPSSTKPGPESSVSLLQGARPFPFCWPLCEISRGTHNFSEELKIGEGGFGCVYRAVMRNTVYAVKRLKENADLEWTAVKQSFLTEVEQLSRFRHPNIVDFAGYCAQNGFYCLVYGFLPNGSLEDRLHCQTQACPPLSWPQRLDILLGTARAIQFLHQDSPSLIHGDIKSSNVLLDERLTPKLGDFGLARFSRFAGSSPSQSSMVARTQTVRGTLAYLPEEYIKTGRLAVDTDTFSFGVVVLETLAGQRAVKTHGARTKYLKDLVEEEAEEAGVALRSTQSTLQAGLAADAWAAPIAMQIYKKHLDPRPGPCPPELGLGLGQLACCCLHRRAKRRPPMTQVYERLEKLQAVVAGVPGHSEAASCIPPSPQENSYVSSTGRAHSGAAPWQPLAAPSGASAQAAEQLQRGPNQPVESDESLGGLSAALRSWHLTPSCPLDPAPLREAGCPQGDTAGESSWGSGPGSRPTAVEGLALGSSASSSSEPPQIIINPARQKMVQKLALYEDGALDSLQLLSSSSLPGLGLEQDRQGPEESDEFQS

[6] = target: T6, FLAG-hDcp2 (human, UniProt Q8IU60 1-420); experiment: co-immunoprecipitation with anti-FLAG from transfected HeLa cells, HA blot
T6 construct: also called FLAG-tagged Dcp2; not shown: FLAG tag

B1: Act1 (endogenous, HeLa cells) (other, human (HeLa cells), UniProt O43734 1-574, looked up)
chain: MPPQLQETRMNRSIPVEVDESEPYPSQLLKPIPEYSPEEESEPPAPNIRNMAPNSLSAPTMLHNSSGDFSQAHSTLKLANHQRPVSRQVTCLRTQVLEDSEDSFCRRHPGLGKAFPSGCSAVSEPASESVVGALPAEHQFSFMEKRNQWLVSQLSAASPDTGHDSDKSDQSLPNASADSLGGSQEMVQRPQPHRNRAGLDLPTIDTGYDSQPQDVLGIRQLERPLPLTSVCYPQDLPRPLRSREFPQFEPQRYPACAQMLPPNLSPHAPWNYHYHCPGSPDHQVPYGHDYPRAAYQQVIQPALPGQPLPGASVRGLHPVQKVILNYPSPWDHEERPAQRDCSFPGLPRHQDQPHHQPPNRAGAPGESLECPAELRPQVPQPPSPAAVPRPPSNPPARGTLKTSNLPEELRKVFITYSMDTAMEVVKFVNFLLVNGFQTAIDIFEDRIRGIDIIKWMERYLRDKTVMIIVAISPKYKQDVEGAESQLDEDEHGLHTKYIHRMMQIEFIKQGSMNFRFIPVLFPNAKKEHVPTWLQNTHVYSWPKNKKNILLRLLREEEYVAPPRGPLPTLQVVPL
notes: Endogenous protein in cells or cell lysate; also called CIKS; endogenous Act1
B1: binds [1]; binds [2]; binds [3].

B2: HA-hAct1 (other, human, UniProt O43734 1-574, looked up)
chain: MPPQLQETRMNRSIPVEVDESEPYPSQLLKPIPEYSPEEESEPPAPNIRNMAPNSLSAPTMLHNSSGDFSQAHSTLKLANHQRPVSRQVTCLRTQVLEDSEDSFCRRHPGLGKAFPSGCSAVSEPASESVVGALPAEHQFSFMEKRNQWLVSQLSAASPDTGHDSDKSDQSLPNASADSLGGSQEMVQRPQPHRNRAGLDLPTIDTGYDSQPQDVLGIRQLERPLPLTSVCYPQDLPRPLRSREFPQFEPQRYPACAQMLPPNLSPHAPWNYHYHCPGSPDHQVPYGHDYPRAAYQQVIQPALPGQPLPGASVRGLHPVQKVILNYPSPWDHEERPAQRDCSFPGLPRHQDQPHHQPPNRAGAPGESLECPAELRPQVPQPPSPAAVPRPPSNPPARGTLKTSNLPEELRKVFITYSMDTAMEVVKFVNFLLVNGFQTAIDIFEDRIRGIDIIKWMERYLRDKTVMIIVAISPKYKQDVEGAESQLDEDEHGLHTKYIHRMMQIEFIKQGSMNFRFIPVLFPNAKKEHVPTWLQNTHVYSWPKNKKNILLRLLREEEYVAPPRGPLPTLQVVPL
notes: Printed as HA-hAct1 in the constructs and Act1-HA in the legends; also called Act1-HA; not shown: HA tag
B2: binds [4]; no binding [5].

B3: HA-TBK1 (enzyme, not shown: small tags and cut ends)
chain: MQSTSNHLWLLSDILGQGATANVFRGRHKKTGDLFAIKVFNNISFLRPVDVQMREFEVLKKLNHKNIVKLFAIEEETTTRHKVLIMEFCPCGSLYTVLEEPSNAYGLPESEFLIVLRDVVGGMNHLRENGIVHRDIKPGNIMRVIGEDGQSVYKLTDFGAARELEDDEQFVSLYGTEEYLHPDMYERAVLRKDHQKKYGATVDLWSIGVTFYHAATGSLPFRPFEGPRRNKEVMYKIITGKPSGAISGVQKAENGPIDWSGDMPVSCSLSRGLQVLLTPVLANILEADQEKCWGFDQFFAETSDILHRMVIHVFSLQQMTAHKIYIHSYNTATIFHELVYKQTKIISSNQELIYEGRRLVLEPGRLAQHFPKTTEENPIFVVSREPLNTIGLIYEKISLPKVHPRYDLDGDASMAKAITGVVCYACRIASTLLLYQELMRKGIRWLIELIKDDYNETVHKKTEVVITLDFCIRNIEKTVKVYEKLMKINLEAAELGEISDIHTKLLRLSSSQGTIETSLQDIDSRLSPGGSLADAWAHQEGTHPKDRNVEKLQVLLNCMTEIYYQFKKDKAERRLAYNEEQIHKFDKQKLYYHATKAMTHFTDECVKKYEAFLNKSEEWIRKMLHLRKQLLSLTNQCFDIEEEVSKYQEYTNELQETLPQKMFTASSGIKHTMTPIYPSSNTLVEMTLGMKKLKEEMEGVVKELAENNHILERFGSLTMDGGLRNVDCL
notes: also called HA-tagged TBK1
B3: no binding [6].
